Assay results taken from publication PMC5024299.

Tested on: Pho4 (Saccharomyces cerevisiae)
Assay: SELMAP (microfluidic SELEX-seq)
Details: last round; On-chip SELMAP: 71-bp dsDNA library (20 ul, 50 uM) flowed 20 min over immobilised TF, MITOMI trapping, DNase 200 U/mL, PBS wash; binding buffer, pH and …

**Q.** Which binding signal (frequency ratio score) does the source give for “Pho4 consensus 6-mer CACGTG in 12-mer library” here?
**A.** The binding signal (frequency ratio score) was 220.
